Assay results as given in article PMC11363328.

Target: DDX3X (UniProt O00571)
Assay: fluorescence polarization, protein titration
Conditions: FP: 14.4 mM HEPES-KOH pH 8, 108 mM NaCl, 1 mM MgCl2, 14.4% glycerol, 0.1% DMSO, 2 mM DTT, 1 mM ATP, 10 nM probe, room temperature, 10 min

DDX3X, sequence (O00571 132-607): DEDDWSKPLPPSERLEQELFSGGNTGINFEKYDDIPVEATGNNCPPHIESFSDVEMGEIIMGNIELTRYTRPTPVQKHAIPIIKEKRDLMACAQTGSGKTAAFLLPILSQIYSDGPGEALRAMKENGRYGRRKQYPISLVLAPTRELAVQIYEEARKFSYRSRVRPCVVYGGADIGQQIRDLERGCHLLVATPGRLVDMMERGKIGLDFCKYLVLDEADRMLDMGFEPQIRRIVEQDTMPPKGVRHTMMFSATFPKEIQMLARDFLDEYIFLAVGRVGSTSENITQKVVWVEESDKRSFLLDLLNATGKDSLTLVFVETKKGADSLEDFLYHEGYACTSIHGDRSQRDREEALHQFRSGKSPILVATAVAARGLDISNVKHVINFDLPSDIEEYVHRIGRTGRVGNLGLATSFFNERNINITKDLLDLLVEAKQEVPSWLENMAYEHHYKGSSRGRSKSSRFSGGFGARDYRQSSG

Q: For AGAGAGAGAGAGAGAG [FAM-r(AG)8], which K half is on record?
A: The K half was 2800 nM.
